Data taken from US20220356229A1 (published 2022).

B1: anti-SARS-CoV-2 antibody 431 (antibody, V domains shown)
VH: QVQLVESGGGVVQPGRSLRLSCAASGFTFSSYAMHWVRQAPGKGLEWLAVISYDGSNKYYADSVKGRFTISRDNSKNTLYLQMNSLRAEDTAVYYCARSFRGGYYYGMDVWGQGTTVTVSS
VL: DIQLTQSPSFLSASVGDRVTITCRASQGISSYLAWYQQKPGKAPKLLIYAASTLQSGVPSRFSGSGSGTEFTLTISSLQPEDFATYYCQQLNSYPLFTFGPGTKVDIK
B2: antibody 434 (antibody, V domains shown)
VH: QVQLVQSGAEVKKPGASVQVSCKASGYTFSDYYIFWVRQAPGQGLEWMGCINPKSGGAIYAQRFQGRVTMTRDTSFNTAYMEMNRLGSDDTAVYYCVTRGPPDIAASGFAWHLDVWGQGTTVTVSS
VL: DIVMTQSPLSLPVTPGEPASISCRSSQSLLSSNGYNYLEWYLQKPGQSPQLLMYLGSNRASGVPDRFSGSGSGTDFTLKINRVEAEDVGVYYCMQALQTPLTFGGGTKVEIK
B3: antibody 439 (antibody, V domains shown)
VH: QVQLVESGGGVVQPGRSLRLSCAASGFTFSSYAMHWVRQAPGKGLEWVAVISYDGSNKYYADSVKGRFTISRDNSKNTLYLQMNSLRAEDTAVYYCARPPRGGSYYPFDPWGQGTLVTVSS
VL: not shown
B4: antibody 443 (antibody, V domains shown)
VH: QMRLEESGPGLVKPSETLSLTCTVAGGSITSSDYFWGWLRQSPGKGLEWIASTYHGGSIQYHPALKSRVTISVDASKNQISLRLSSVTAADTAVYYCARDRGDDGPMGTYYFDHWGQGALVTVSS
VL: QSVLTQPPSVSGAPGQSVTISCAGSSSNIGAGHDVHWYQQIPGTAPKLLICGNTNRPSGVPERFSGSRSGTSASLAITGLQAEDEAVYYCQSYDPSHVFFGTGTKLTVL
B5: antibody 444 (antibody, V domains shown)
VH: QVQLVESGGGLVKPGGSLRLSCAASGFTFSDYYMSWIRQAPGKGLEWVSYISSSGSTIYYADSVKGRFTISRDNAKNSLYLQMNSLRAEDTAVYYCARERKVVVAATRNYYYYYGMDVWGQGTTVTVSS
VL: SYELTQPPSVSVSPGQTARITCSGDALPKQYAYWYQQKPGQAPVLVIYKDSERPSGIPERFSGSSSGTTVTLTISGVQAEDEADYYCQSADSSTWVFGGGTKLTVL
B6: antibody 446 (antibody, V domains shown)
VH: QVQLVESGGGVVQPGRSLRLSCAASGFTFSSYAMHWVRQAPGKGLEWVAVISYDGSNKYYADSVKGRFTISRDNSKNTLYLQMNSLRAEDTAVYYCARPNSGSYFGYFQHWGQGTLVTVSS
VL: QSVLTQPPSVSGAPGQRVTISCTGSSSNIGAGYDVHWYQQLPGTAPKLLIYGNSNRPSGVPDRFSGSKSGTSASLAITGLQAEDEADYYCQSYDSSLSGFYVFGTGTKVTVL
B7: antibody 452 (antibody, V domains shown)
VH: QVQLVESGGGLVKPGGSLRLSCAASGFTFSDYYLSWIRQAPGKGLEWVSYISSSGSNIYYADSVKGRFTISRDNAKNSLYLQMNSLRADDTAVFYCARAGRYCSGGSCRVEYFQHWGQGTLVTVSS
VL: SYELTQPPSVSVSPGQTARITCSGDALPKQYAYWYQQKPGQAPVLVIYKDNERPSGIPERFSGSSSGTTATLTISGVQAEDEADYYCQSADSSGTVVFGGGTKLTVL
B8: antibody 454 (antibody, V domains shown)
VH: QVQLVQSGAEVKKPGASLKVSCKASGYIFTGYYMHWVRQAPGQGLEWMGWISPNSGGTKYAQKFQGRVTMTRDTSISTAYMELSRLRSDDSAVYYCAREPYYDILTGYYTPRRYLDYWGQGTLVTVSS
VL: QSALTQPASVSGSPGQSITISCTGTSSDVGDYNYVSWYQQHPGKVPKLMIYDVSHRPSGVTNRFSGSKSGNTASLTISGLRAEDEADYYCSSYTSSSTYVFGTGTKVTVL
B9: antibody 470 (antibody, V domains shown)
VH: not shown
VL: QSALTQPASVSGSPGQSITISCTGTSSDVGSYNLVSWYQQHPGKAPKLMIYEVSKRPSGVSNRFSGSKSGNTASLTISGLQAEDEADYYCCSYAGSSTLVFGGGTKLTVL

Assays:
[1] = target: SARS-CoV Spike protein (full length Spike, coupled to optically encoded beads) (SARS-CoV, UniProt P59594 14-1190)
SARS-CoV Spike protein = SARS-CoV Spike protein (SARS-CoV, UniProt P59594 14-1190)

Row | Binder | median fluorescence, fold over isotype [1] | bead binding signal (fold over isotype control) (SARS-CoV Spike protein)
1 | B1 | 49.9 fold over isotype | 
2 | B2 |  | 1.36
3 | B3 |  | 1.23
4 | B4 |  | 1.03
5 | B5 |  | 1
6 | B6 |  | 6.58
7 | B7 |  | 1.09
8 | B8 |  | 1.1
9 | B9 |  | 1.09
